From patent publication US20230201308A1, “TREATMENT OF CORONAVIRUS INFECTION WITH […]” (Eiger Biopharmaceuticals, Inc., priority 2020, published 2023)

Assays:
SARS-CoV-2 MA = system: SARS-CoV-2 MA; parameters: species or system BALB/c mice; settings: mouse, in vivo, sc
[1] = Third trial (TOGETHER): treatment emergent adverse events and drug adherence; type: in vivo, human
Text: An adverse event (AE) is any adverse change from the participant's baseline (pre-treatment) condition, including intercurrent illness which occurs during the course of the trial, after the consent form has been signed, whether the event is considered related to treatment or not.
A serious adverse event (SAE) is any adverse event that at any dose: • results in death (grade 5 event) • is life-threatening (grade 4 event) • requires inpatient hospitalization or prolongation of existing hospitalization • results in persistent or significant disability or incapacity • is a congenital anomaly/birth defect
Study personnel collected outcome data via in-person, and via telephone or WhatsApp using video-teleconferencing on Days 1, 2, 3, 4, 5, 7, 10, 14, and 28. Adverse events were recorded at the time they occurred. All serious and non-serious adverse events were reported to study personnel as per local regulatory requirements. Reportable adverse events included serious adverse events, adverse events resulting in study medication discontinuation, and adverse events assessed as possibly related to study medication.

[2] = ITT preliminary, n=916 vs placebo 1020
[3] = Treated within 3 days of symptom onset, n=539 vs placebo 586
[4] = Treated within 5 days of symptom onset, n=800 vs placebo 879
[5] = Unvaccinated population, n=143 vs placebo 176

B1: pegylated interferon lambda-1a (protein)
chain: MKPTTTGKGCHIGRFKSLSPQELASFKKARDALEESLKLKNWSCSSPVFPGNWDLRLLQVRERPVALEAELALTLKVLEAAAGPALEDVLDQPLHTLHHILSQLQACIQPQPTAGPRPRGRLHHWLHRLQEAPKKESAGCLEASVTFNLFRLLTRDLKYVADGNLSLRTSTHPEST
modifications: PEG
notes: 180 mcg subcutaneous injection
SARS-CoV-2 MA replication in the lung (lung viral titer) (SARS-CoV-2 MA): significantly diminished | viral titer in the nasal turbinates (SARS-CoV-2 MA): did not alter | TEAE, Grade 1, % of patients [1, 2]: (1.7%) | TEAE, Grade 1, RR (95% CrI) vs placebo [1, 2]: 0.75 (0.40, 1.38) | TEAE, Grade 2, % of patients [1, 2]: (9%) | TEAE, Grade 2, RR (95% CrI) vs placebo [1, 2]: 1.00 (0.75, 1.33) | TEAE, Grade 3, % of patients [1, 2]: (2.2%) | TEAE, Grade 3, RR (95% CrI) vs placebo [1, 2]: 0.70 (0.40, 1.20) | TEAE, Grade 4, % of patients [1, 2]: (0.8%) | TEAE, Grade 4, RR (95% CrI) vs placebo [1, 2]: 1.11 (0.41, 3.05) | TEAE, Grade 5, % of patients [1, 2]: (0.3%) | TEAE, Grade 5, RR (95% CrI) vs placebo [1, 2]: 0.88 (0.21, 3.40) | Number experiencing TEAEs: % ([1]; N = 931): (14.7%) | Number experiencing TEAEs: n ([1]; N = 931): 137 | Number experiencing possibly treatment-related TEAS: % ([1]; N = 931): (0.4%) | Number experiencing possibly treatment-related TEAS: n ([1]; N = 931): 4 | Number experiencing serious TEAEs: % ([1]; N = 931): (3.4%) | Number experiencing serious TEAEs: n ([1]; N = 931): 32 | TEAE, Grade 1: % ([1]; N = 931): (2.9%) | TEAE, Grade 1: n ([1]; N = 931): 27 | TEAE, Grade 2: % ([1]; N = 931): (9.2%) | TEAE, Grade 2: n ([1]; N = 931): 86 | TEAE, Grade 3: % ([1]; N = 931): (2.3%) | TEAE, Grade 3: n ([1]; N = 931): 21 | TEAE, Grade 4: % ([1]; N = 931): (0.9%) | TEAE, Grade 4: n ([1]; N = 931): 8 | TEAE, Grade 5: % ([1]; N = 931): (0.4%) | TEAE, Grade 5: n ([1]; N = 931): 4 | Number experiencing TEAEs: Probability of Superiority ([1]; N = 931 vs placebo N = 1018): 88.5 | Number experiencing TEAEs: RR (95% CrI), estimated treatment effect ([1]; N = 931 vs placebo N = 1018): 0.88 (0.71, 1.08) | Number experiencing possibly treatment-related TEAS: Probability of Superiority ([1]; N = 931 vs placebo N = 1018): 82.8 | Number experiencing possibly treatment-related TEAS: RR (95% CrI), estimated treatment effect ([1]; N = 931 vs placebo N = 1018): 0.59 (0.18, 1.74) | Number experiencing serious TEAEs: Probability of Superiority ([1]; N = 931 vs placebo N = 1018): 93.6 | Number experiencing serious TEAEs: RR (95% CrI), estimated treatment effect ([1]; N = 931 vs placebo N = 1018): 0.72 (0.46, 1.10) | TEAE, Grade 1: Probability of Superiority ([1]; N = 931 vs placebo N = 1018): 84.5 | TEAE, Grade 1: RR (95% CrI), estimated treatment effect ([1]; N = 931 vs placebo N = 1018): 0.78 (0.48, 1.26) | TEAE, Grade 2: Probability of Superiority ([1]; N = 931 vs placebo N = 1018): 64.0 | TEAE, Grade 2: RR (95% CrI), estimated treatment effect ([1]; N = 931 vs placebo N = 1018): 0.95 (0.72, 1.25) | TEAE, Grade 3: Probability of Superiority ([1]; N = 931 vs placebo N = 1018): 93.9 | TEAE, Grade 3: RR (95% CrI), estimated treatment effect ([1]; N = 931 vs placebo N = 1018): 0.66 (0.39, 1.11) | TEAE, Grade 4: Probability of Superiority ([1]; N = 931 vs placebo N = 1018): 42.6 | TEAE, Grade 4: RR (95% CrI), estimated treatment effect ([1]; N = 931 vs placebo N = 1018): 1.09 (0.42, 2.86) | TEAE, Grade 5: Probability of Superiority ([1]; N = 931 vs placebo N = 1018): 67.5 | TEAE, Grade 5: RR (95% CrI), estimated treatment effect ([1]; N = 931 vs placebo N = 1018): 0.76 (0.22, 2.46) | TEAE, Grade 1, % of patients [1, 3]: (0.9%) | TEAE, Grade 1, RR (95% CrI) vs placebo [1, 3]: 0.53 (0.18, 1.38) | TEAE, Grade 2, % of patients [1, 3]: (9.8%) | TEAE, Grade 2, RR (95% CrI) vs placebo [1, 3]: 1.13 (0.78, 1.63) | TEAE, Grade 3, % of patients [1, 3]: (1.3%) | TEAE, Grade 3, RR (95% CrI) vs placebo [1, 3]: 0.47 (0.19, 1.05) | TEAE, Grade 4, % of patients [1, 3]: (0.7%) | TEAE, Grade 4, RR (95% CrI) vs placebo [1, 3]: 3.01 (0.61, 23.67) | TEAE, Grade 5, % of patients [1, 3]: (0%) | TEAE, Grade 5, RR (95% CrI) vs placebo [1, 3]: 0.21 (0.01, 1.64) | TEAE, Grade 1, % of patients [1, 4]: (1.8%) | TEAE, Grade 1, RR (95% CrI) vs placebo [1, 4]: 0.78 (0.40, 1.51) | TEAE, Grade 2, % of patients [1, 4]: (8.9%) | TEAE, Grade 2, RR (95% CrI) vs placebo [1, 4]: 0.95 (0.70, 1.29) | TEAE, Grade 3, % of patients [1, 4]: (1.9%) | TEAE, Grade 3, RR (95% CrI) vs placebo [1, 4]: 0.56 (0.30, 1.01) | TEAE, Grade 4, % of patients [1, 4]: (0.8%) | TEAE, Grade 4, RR (95% CrI) vs placebo [1, 4]: 1.99 (0.58, 7.88) | TEAE, Grade 5, % of patients [1, 4]: (0.4%) | TEAE, Grade 5, RR (95% CrI) vs placebo [1, 4]: 0.86 (0.20, 3.40) | TEAE, Grade 1, % of patients [1, 5]: 5.6% | TEAE, Grade 1, RR (95% CrI) vs placebo [1, 5]: 1.23 (0.49, 3.08) | TEAE, Grade 2, % of patients [1, 5]: 11.9% | TEAE, Grade 2, RR (95% CrI) vs placebo [1, 5]: 1.16 (0.63, 2.16) | TEAE, Grade 3, % of patients [1, 5]: 3.5% | TEAE, Grade 3, RR (95% CrI) vs placebo [1, 5]: 0.60 (0.21, 1.53) | TEAE, Grade 4, % of patients [1, 5]: 1.4% | TEAE, Grade 4, RR (95% CrI) vs placebo [1, 5]: 0.58 (0.12, 2.22) | TEAE, Grade 5, % of patients [1, 5]: 0 (0%) | TEAE, Grade 5, RR (95% CrI) vs placebo [1, 5]: 1.21 (0.03, 47.34) | treatment emergent adverse events compared to placebo ([1]; final analysis, listed as peginterferon lambda): no important differences | Premature discontinuation, Request by participant to terminate study treatment, % ([1]; n=916): (0.0%) | Premature discontinuation, reason Hospitalization, % ([1]; n=916): (0.0%) | Premature discontinuation, reason Non-compliance with Study Therapy, % ([1]; n=916): (0.0%) | Premature discontinuation, reason Other, % ([1]; n=916): (0.0%) | Prematurely discontinued study drug, % ([1]; n=916, within 28 days of randomization): (0.0%) | incidence of any adverse event compared with placebo ([1]; preliminary ITT): indistinguishable
